Source: patent publication US20260166131

Biological target: custom-expressed human TDP-43 (Nanjing GenScript Biotechnology Co., Ltd., C134WHE160-2/P5HF001), Q13148
Sequence (Q13148 whole entry): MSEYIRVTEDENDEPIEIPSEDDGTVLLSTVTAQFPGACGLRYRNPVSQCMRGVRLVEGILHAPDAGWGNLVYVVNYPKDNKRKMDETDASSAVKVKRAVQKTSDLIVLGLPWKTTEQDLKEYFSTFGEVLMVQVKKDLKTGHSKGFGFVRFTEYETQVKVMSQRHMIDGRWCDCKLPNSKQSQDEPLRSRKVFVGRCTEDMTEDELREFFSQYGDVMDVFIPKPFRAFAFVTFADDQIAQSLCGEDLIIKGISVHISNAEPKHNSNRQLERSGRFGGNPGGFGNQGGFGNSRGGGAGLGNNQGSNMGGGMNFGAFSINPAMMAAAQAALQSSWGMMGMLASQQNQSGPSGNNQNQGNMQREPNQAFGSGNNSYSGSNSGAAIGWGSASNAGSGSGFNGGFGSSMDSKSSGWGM

B1: human plasminogen purified from human donor plasma (protein)
chain: KVYLSECKTGNGKNYRGTMSKTKNGITCQKWSSTSPHRPRFSPATHPSEGLEENYCRNPDNDPQGPWCYTTDPEKRYDYCDILECEEECMHCSGENYDGKISKTMSGLECQAWDSQSPHAHGYIPSKFPNKNLKKNYCRNPDRELRPWCFTTDPNKRWELCDIPRCTTPPPSSGPTYQCLKGTGENYRGNVAVTVSGHTCQHWSAQTPHTHNRTPENFPCKNLDENYCRNPDGKRAPWCHTTNSQVRWEYCKIPSCDSSPVSTEQLAPTAPPELTPVVQDCYHGDGQSYRGTSSTTTTGKKCQSWSSMTPHRHQKTPENYPNAGLTMNYCRNPDADKGPWCFTTDPSVRWEYCNLKKCSGTEASVVAPPPVVLLPDVETPSEEDCMFGNGKGYRGKRATTVTGTPCQDWAAQEPHRHSIFTPETNPRAGLEKNYCRNPDGDVGGPWCYTTNPRKLYDYCDVPQCAAPSFDCGKPQVEPKKCPGRVVGGCVAHPHSWPWQVSLRTRFGMHFCGGTLISPEWVLTAAHCLEKSPRPSSYKVILGAHQEVNLEPHVQEIEVSRLFLEPTRKDIALLKLSSPAVITDKVIPACLPSPNYVVADRTECFITGWGETQGTFGAGLLKEAQLPVIENKVCNRYEFLNGRVQSTELCAGHLAGGTDSCQGDSGGPLVCFEKDKYILQGVTSWGLGCARPNKPGVYVRVSRFVTWIEGVMRNN
Western blot and band density of TDP-43 after 3 h at 37 C with plasminogen in normal mouse brain homogenate: the amounts of TDP-43 monomer, HMW and LMW in the plasminogen group are significantly lower than those in the vehicle control group
